Kd data for 39 molecules are collected here from patent US20260151519A1 (AKTIS ONCOLOGY, published 2026).

The assay has as its target T1, Human Nectin-4 (human, UniProt Q96NY8 32-349, limits assumed).
T1 construct: Protein immobilised on the SPR chip; also called target protein
T1 sequence: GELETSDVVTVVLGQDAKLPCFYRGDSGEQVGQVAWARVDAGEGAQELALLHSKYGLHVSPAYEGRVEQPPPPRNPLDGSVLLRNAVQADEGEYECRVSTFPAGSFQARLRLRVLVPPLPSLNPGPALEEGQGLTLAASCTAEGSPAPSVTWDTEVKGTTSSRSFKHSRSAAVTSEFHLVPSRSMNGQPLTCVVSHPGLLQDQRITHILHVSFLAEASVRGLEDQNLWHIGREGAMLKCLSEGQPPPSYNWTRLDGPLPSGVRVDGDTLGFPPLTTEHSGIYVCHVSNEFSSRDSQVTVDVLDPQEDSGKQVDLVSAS
The assay can be described thus: Table 2B (DELFIA or SPR).

One may read the Kd as a measure of binding affinity in units of concentration. Lower therefore signals tighter binding.

Bridges are numbered along the chain shown (N, C = ends). Primed or numbered codes have the meaning given here. Where no end group is shown, it is not given here. The star is where a group is joined. FITC = O=C1OC2(c3ccc(O)cc3Oc3cc(O)ccc32)c2ccc(NC(=S)*)cc21; DTPA = O=C(O)CN(CCN(CC(=O)O)CC(=O)O)CCN(CC(=O)O)CC(=O)*; Biotin = O=C1N[C@H]2[C@H](CS[C@H]2CCCCC(=O)*)N1; PEG4″ = 4(ethylene glycol)

Regarding Ac-CEYDEEFFAGLKRLRGGDICYYIKKKFKKVPDLCIEEILDKLGC-OH (designed binder, disulfide 1-34, 20-44) [C16], the affinity, expressed as Kd, was 4.34 nM.
For Ac-CEDDFQFFADLKRLRGGDICYYIRLKFDKVPDLCIKEILDKLGC-OH (designed binder, disulfide 1-34, 20-44) [C6], the Kd came to 17.1 nM.
For Ac-CEYDEEFFNGLKRLRGGDICYYIKKKFDKVPDLCIEEILDKLGC-OH (designed binder, disulfide 1-34, 20-44) [C13], the Kd was found to be 6.01 nM.
With {DTPA-PEG4″}-CEYDEEFFAGLKRLRGGDICYYIKKKFDKVPDLCIEEILDKLGC-OH (designed binder, disulfide 1-34, 20-44) [C11], the affinity, expressed as Kd, was 6.86 nM.
Then H-CEYDEEFFAGLKRLRGGDICYYIKKKFDKVPDLCIEEILDKLGC-OH (designed binder, disulfide 1-34, 20-44) [C7], with 5.5 nM; and Ac-CEYDEEFFNGLHRLRRGDICYYIKKKFKKVPDLCIEEILDKLGC-OH (designed binder, disulfide 1-34, 20-44) [C18], with 38.2 nM.
Regarding Ac-CEYDEEFFAGLKRLRRGDICYYIKKKFDKVPDLCIEEILDKLGC (designed binder, disulfide 1-34, 20-44) [C14], the Kd was determined as 14.1 nM.
In turn, Ac-CEYDEEFFAGLHRLRGGDICYYIKKKFDKVPDLCIEEILDKLGC-OH (designed binder, disulfide 1-34, 20-44) [C20] yielded a Kd of 22.1 nM.
Then {FITC}-CEYDEEFFAGLKRLRGGDICYYIKKKFDKVPDLCIEEILDKLGC-OH (designed binder, disulfide 1-34, 20-44) [C10], with 37.6 nM.
Consider Ac-CEYDEEFFAGLHRLRGGDICYYIKKKFPKVPDLCIEEILDKLGC-OH (designed binder, disulfide 1-34, 20-44) [C21], for which the affinity, expressed as Kd, was 49.4 nM. The Kd values of the last two molecules are within 1.5-fold of each other.
The molecule H-CEDDFQFFADLKRLRGGDICYYIRLKFDKVPDLCIKEILDKLGC-OH (designed binder, disulfide 1-34, 20-44) [C4] showed a Kd of 14.4 nM. This Kd is about 3.4-fold lower than that of the molecule before.
For the molecule Ac-CEYDEEFFAGLKRLRGGDICYYIKKKFDKVPDLCIKEILDKLGC-OH (designed binder, disulfide 1-34, 20-44) [C5], binding was characterised by a dissociation constant (Kd) of 18.9 nM.
Ac-CEYDEEFFNGLKRLRGGDICYYIKKKFKKVPDLCIEEILDKLGC-OH (designed binder, disulfide 1-34, 20-44) [C17] showed a Kd of 4.16 nM. Compared with the last molecule, the Kd is about 4.5-fold lower.
Molecule H-CEYDEEFFAGLKRLRGGDICYYIKKKFDKVPDLCIKEILDKLGC-OH (designed binder, disulfide 1-34, 20-44) [C3] yielded a Kd of 9.68 nM. Compared with the last molecule, the Kd is about 2.3-fold higher.
Ac-CEYDEEFFAGLKRLRGGDICYYIKKKFPKVPDLCIEEILDKLGC-OH (designed binder, disulfide 1-34, 20-44) [C19]: binding was put at a Kd of 10.8 nM.
For Ac-CEYDEEFFNGLKRLRRGDICYYIKKKFDKVPDLCIEEILDKLGC-OH (designed binder, disulfide 1-34, 20-44) [C15], the dissociation constant (Kd) came to 12.2 nM.
The value for {Biotin-PEG4″}-CEDDEEFFADLKRLRGGDICYYIKLKFDKVPDLCIKEILDKLGC (designed binder, disulfide 1-34, 20-44) [C2] was 58.9 nM; that for {Biotin-PEG4″}-CEYDEEFFTALKRLRGDDICEYIQASFQYLPGLCIEEILDNLGCS-OH (designed binder, disulfide 1-34, 20-44) [C181] was 3 nM.
Then {Biotin-PEG4″}-CDYDEQFFTALKRLRGGDICEYIQASFQYLPGECIEEILDNLGCS (designed binder, disulfide 1-34, 20-44) [C210], with 1.54 nM; and {Biotin-PEG4″}-CDYDEEFFTALKRLRGDDICEYIQASFQYLPGLCIEEILDNLGCS-OH (designed binder, disulfide 1-34, 20-44) [C191], with 1.4 nM.
Regarding {Biotin-PEG4″}-CEYDEEFFTALKRLRGDDICSYIQASFQYLPGLCIEEILDNLGCS-OH (designed binder, disulfide 1-34, 20-44) [C182], the affinity, expressed as Kd, was 3 nM. This Kd lies about 2.1-fold higher than the previous one.
With {Biotin-PEG4″}-CDYDEQFFTALKRLRGADICEYIQASFQYLPGQCIEEILDNLGCS (designed binder, disulfide 1-34, 20-44) [C209], the Kd was found to be 1.25 nM.
For {Biotin-PEG4″}-CEYDEQFFTALKRLRGADICDYIQASFQYLPGLCIEEILDNLGCS-OH (designed binder, disulfide 1-34, 20-44) [C194], the Kd came to 1.1 nM.
Molecule {Biotin-PEG4″}-CEYDEEFFTALKRLRGGDICDYIQASFQYLPGECIEEILQNLGCS-OH (designed binder, disulfide 1-34, 20-44) [C205] yielded an equilibrium dissociation constant (Kd) of 2.1 nM. Compared with the last molecule, the Kd is about 1.9-fold higher.
On to {Biotin-PEG4″}-CDYDEEFFTALKRLRGGDICEYIQASFQYLPGLCIEEILDNLGCS-OH (designed binder, disulfide 1-34, 20-44) [C188], for which the Kd is 1.6 nM.
On to {Biotin-PEG4″}-CDYDEEFFTALKRLRGGDICSYIQASFQYLPGLCIEEILDNLGCS-OH (designed binder, disulfide 1-34, 20-44) [C189], for which the Kd worked out at 1.1 nM.
On to {Biotin-PEG4″}-CEYDEQFFTALKRLRGADICEYIQASFQYLPGLCIEEILDNLGCS-OH (designed binder, disulfide 1-34, 20-44) [C183], for which binding was characterised by a dissociation constant (Kd) of 1.2 nM.
{Biotin-PEG4″}-CEYDEEFFTALKRLRGGDICEYIQAAFQYLPGLCIEEILDNLGCS-OH (designed binder, disulfide 1-34, 20-44) [C198]: the affinity, expressed as Kd, was 2.3 nM.
{Biotin-PEG4″}-CDYDEQFFTALKRLRGADICEYIQASFQYLPGLCIEEILDNLGCS-OH (designed binder, disulfide 1-34, 20-44) [C207]: binding was characterised by a dissociation constant (Kd) of 1.08 nM.
With {Biotin-PEG4″}-CEYDEEFFTALKRLRGADICDYIQASFQYLPGLCIEEILDNLGCS-OH (designed binder, disulfide 1-34, 20-44) [C195], the affinity, expressed as Kd, was 2.3 nM.
Then {Biotin-PEG4″}-CEYDEQFFTALKRLRGDDICSYIQASFQYLPGLCIEEILDNLGCS (designed binder, disulfide 1-34, 20-44) [C186], with 1.7 nM; and {Biotin-PEG4″}-CDYDEQFFTALKRLRGDDICEYIQASFQYLPGLCIEEILDNLGCS-OH (designed binder, disulfide 1-34, 20-44) [C193], with 1 nM.
For the molecule {Biotin-PEG4″}-CDYDEEFFTALKRLRGDDICSYIQASFQYLPGLCIEEILDNLGCS-OH (designed binder, disulfide 1-34, 20-44) [C192], the Kd worked out at 1.3 nM.
{Biotin-PEG4″}-CEYDEEFFTALKRLRGGDICDYIQASFQYLPGECIEEILDNLGCS-OH (designed binder, disulfide 1-34, 20-44) [C203] registered a dissociation constant (Kd) of 2.3 nM.
In turn, {Biotin-PEG4″}-CEYDEEFFTALKRLRGGDICEYIQASFQYLPGECIEEILQNLGCS-OH (designed binder, disulfide 1-34, 20-44) [C204] came in with a Kd of 1.98 nM.
{Biotin-PEG4″}-CEYDEEFFTALKRLRGGDICEYIQASFQYLPGECIEEILDNLGCS (designed binder, disulfide 1-34, 20-44) [C202] displayed a Kd of 2.2 nM.
{Biotin-PEG4″}-CEYDEEFFTALKRLRGGDICDYIQASFQYLPGLCIEEILDNLGCS-OH (designed binder, disulfide 1-34, 20-44) [C200] had a Kd of 2 nM. The Kd values of the last two molecules are within 1.5-fold of each other.
In the case of {Biotin-PEG4″}-CEYDEQFFTALKRLRGGDICSYIQASFQYLPGLCIEEILDNLGCS (designed binder, disulfide 1-34, 20-44) [C184], the Kd is 2.5 nM.
{Biotin-PEG4″}-CDYDEQFFTALKRLRGGDICEYIQASFQYLPGQCIEEILDNLGCS (designed binder, disulfide 1-34, 20-44) [C211] gave a Kd of 1.19 nM. Compared with the last molecule, the Kd is about 2.1-fold lower.
